The results in this text go back to paper PMC2583301 (The Journal of Biological Chemistry, 2008).

Like-named read-outs stand apart in the source and are kept apart here.

The target in assay [1] is T1, H2A/H2B dimer (major type, wild type) (Xenopus laevis, UniProt P06897;P02281). The assay can be described thus: other fluorescence titration.
The target in the next assay is H2A.Z/H2B dimer ( | Xenopus laevis, UniProt P0C0S5;P02281). Kind of assay: other fluorescence titration.
In assay [2] the target is H2A refolded in the absence of H2B (Xenopus laevis, UniProt P06897 1-130). Kind of assay: other fluorescence titration.
A further assay has as its target H3 alone (Xenopus laevis, UniProt P84233 1-136). Kind of assay: other fluorescence titration.
Assay [3] addresses T1, H2A/H2B dimer (major type, wild type). The assay can be described thus: other fluorescence titration. This is another data set of the same source.
Assay [4] has the same target. Kind of assay: other fluorescence titration. This is another data set of the same source.
Assay [5] shares this target. Kind of assay: other fluorescence titration. The source holds these as a separate data set.
For assay [6] the target is unchanged. The assay can be described thus: native gel or EMSA. (Mobility shift assays separate free from complexed probe on a gel.)

The term Kd denotes the concentration at which binding is half-saturated. The low end stands for higher affinity, the high end for lower affinity.

B1: yNap1 C200A/C249A/C272A labelled with Alexa dye at Cys-414 (yNap1m*) (natural protein)
chain: MSDPIRTKPKSSMQIDNAPTPHNTPASVLNPSYLKNGNPVRAQAQEQDDKIGTINEEDILANQPLLLQSIQDRLGSLVGQDSGYVGGLPKNVKEKLLSLKTLQSELFEVEKEFQVEMFELENKFLQKYKPIWEQRSRIISGQEQPKPEQIAKGQEIVESLNETELLVDEEEKAQNDSEEEQVKGIPSFWLTALENLPIVADTITDRDAEVLEYLQDIGLEYLTDGRPGFKLLFRFDSSANPFFTNDILAKTYFYQKELGYSGDFIYDHAEGAEISWKDNAHNVTVDLEMRKQRNKTTKQVRTIEKITPIESFFNFFDPPKIQNEDQDEELEEDLEERLALDYSIGEQLKDKLIPRAVDWFTGAALEFEFEEDEEEADEDEDEEEDDDHGLEDDDGESAEEQDDFAGRPEQAPECKQS
modifications: Alexa-546 or Alexa-488 on Cys-414
In the case of B1, the dissociation constant (Kd) in assay [1] is 1.2 nM; in the assay with H2A.Z/H2B dimer, 7.4 nM; in assay [2] it was 3.5 nM; with H3 alone, over 10000 nM; in assay [3] it was 7.8 nM; in assay [4], 21.6 nM. Besides, the Kd in assay [5] came out at 7.8 nM.

B2: yeast nucleosome assembly protein 1 (yNap1), wild type (natural protein)
chain: MSDPIRTKPKSSMQIDNAPTPHNTPASVLNPSYLKNGNPVRAQAQEQDDKIGTINEEDILANQPLLLQSIQDRLGSLVGQDSGYVGGLPKNVKEKLLSLKTLQSELFEVEKEFQVEMFELENKFLQKYKPIWEQRSRIISGQEQPKPEQIAKGQEIVESLNETELLVDEEEKAQNDSEEEQVKGIPSFWLTALENLPIVCDTITDRDAEVLEYLQDIGLEYLTDGRPGFKLLFRFDSSANPFFTNDILCKTYFYQKELGYSGDFIYDHAEGCEISWKDNAHNVTVDLEMRKQRNKTTKQVRTIEKITPIESFFNFFDPPKIQNEDQDEELEEDLEERLALDYSIGEQLKDKLIPRAVDWFTGAALEFEFEEDEEEADEDEDEEEDDDHGLEDDDGESAEEQDDFAGRPEQAPECKQS
For the molecule B2, in assay [6], the binding result is listed as “binds”.
